Target: the molecule itself
Test: crystal structure; HD domain (113-626) H206R/D207N constructs, 4 mg/ml, with 4 mM dGTP; microbatch under oil; 100 mM succinic acid-phosphate-glycine buffer, 30% PEG1500; tetramer

Row | Protein | stoichiometry N
1 | SAMHD1 (113-626) H206R/D207N/R366C (domain or fragment, UniProt Q9Y3Z3 113-626, looked up, Crystallised with 4 mM dGTP; also called R366C (crystal construct); SAMHD1 HD/RN R366C) DTMKVINDPIHGHIELHPLLVRIIDTPQFQRLRYIKQLGGGYYVFPGASHNRFEHSLGVGYLAGCLVHALGEKQPELQISERDVLCVQIAGLCRNLGHGPFSHMFDGRFIPLARPEVKWTHEQGSVMMFEHLINSNGIKPVMEQYGLIPEEDICFIKEQIVGPLESPVEDSLWPYKGRPENKSFLYEIVSNKRNGIDVDKWDYFARDCHHLGIQNNFDYKRFIKFARVCEVDNELRICARDKEVGNLYDMFHTCNSLHRRAYQHKVGNIIDTMITDAFLKADDYIEITGAGGKKYRISTAIDDMEAYTKLTDNIFLEILYSTDPKLKDAREILKQIEYRNLFKYVGETQPTGQIKIKREDYESLPKEVASAKPKVLLDVKLKAEDFIVDVINMDYGMQEKNPIDHVSFYCKTAPNRAIRITKNQVSQLLPEKFAEQLIRVYCKKVDRKSLYAARQYFVQWCADRNFTKPQDGDVIAPLITPQKKEWNDSTSVQNPTRLREASKSRVQLFKDDPM | 4
2 | SAMHD1 (113-626) H206R/D207N/R366H (domain or fragment, UniProt Q9Y3Z3 113-626, looked up, Crystallised with 4 mM dGTP; also called R366H (crystal construct); SAMHD1 HD/RN R366H) DTMKVINDPIHGHIELHPLLVRIIDTPQFQRLRYIKQLGGGYYVFPGASHNRFEHSLGVGYLAGCLVHALGEKQPELQISERDVLCVQIAGLCRNLGHGPFSHMFDGRFIPLARPEVKWTHEQGSVMMFEHLINSNGIKPVMEQYGLIPEEDICFIKEQIVGPLESPVEDSLWPYKGRPENKSFLYEIVSNKRNGIDVDKWDYFARDCHHLGIQNNFDYKRFIKFARVCEVDNELRICARDKEVGNLYDMFHTHNSLHRRAYQHKVGNIIDTMITDAFLKADDYIEITGAGGKKYRISTAIDDMEAYTKLTDNIFLEILYSTDPKLKDAREILKQIEYRNLFKYVGETQPTGQIKIKREDYESLPKEVASAKPKVLLDVKLKAEDFIVDVINMDYGMQEKNPIDHVSFYCKTAPNRAIRITKNQVSQLLPEKFAEQLIRVYCKKVDRKSLYAARQYFVQWCADRNFTKPQDGDVIAPLITPQKKEWNDSTSVQNPTRLREASKSRVQLFKDDPM | 4

— paper PMC8497992, “Structural and functional characterization explains loss of dNTPase activity of the cancer-specific R366C/H mutant SAMHD1 proteins” (The Journal of Biological Chemistry, 2021)
